This assay deals with T1, recombinant NRPD1 fused at its C-terminus to a FLAG epitope tag (Arabidopsis thaliana, UniProt Q9LQ02 1-1453).
T1 sequence: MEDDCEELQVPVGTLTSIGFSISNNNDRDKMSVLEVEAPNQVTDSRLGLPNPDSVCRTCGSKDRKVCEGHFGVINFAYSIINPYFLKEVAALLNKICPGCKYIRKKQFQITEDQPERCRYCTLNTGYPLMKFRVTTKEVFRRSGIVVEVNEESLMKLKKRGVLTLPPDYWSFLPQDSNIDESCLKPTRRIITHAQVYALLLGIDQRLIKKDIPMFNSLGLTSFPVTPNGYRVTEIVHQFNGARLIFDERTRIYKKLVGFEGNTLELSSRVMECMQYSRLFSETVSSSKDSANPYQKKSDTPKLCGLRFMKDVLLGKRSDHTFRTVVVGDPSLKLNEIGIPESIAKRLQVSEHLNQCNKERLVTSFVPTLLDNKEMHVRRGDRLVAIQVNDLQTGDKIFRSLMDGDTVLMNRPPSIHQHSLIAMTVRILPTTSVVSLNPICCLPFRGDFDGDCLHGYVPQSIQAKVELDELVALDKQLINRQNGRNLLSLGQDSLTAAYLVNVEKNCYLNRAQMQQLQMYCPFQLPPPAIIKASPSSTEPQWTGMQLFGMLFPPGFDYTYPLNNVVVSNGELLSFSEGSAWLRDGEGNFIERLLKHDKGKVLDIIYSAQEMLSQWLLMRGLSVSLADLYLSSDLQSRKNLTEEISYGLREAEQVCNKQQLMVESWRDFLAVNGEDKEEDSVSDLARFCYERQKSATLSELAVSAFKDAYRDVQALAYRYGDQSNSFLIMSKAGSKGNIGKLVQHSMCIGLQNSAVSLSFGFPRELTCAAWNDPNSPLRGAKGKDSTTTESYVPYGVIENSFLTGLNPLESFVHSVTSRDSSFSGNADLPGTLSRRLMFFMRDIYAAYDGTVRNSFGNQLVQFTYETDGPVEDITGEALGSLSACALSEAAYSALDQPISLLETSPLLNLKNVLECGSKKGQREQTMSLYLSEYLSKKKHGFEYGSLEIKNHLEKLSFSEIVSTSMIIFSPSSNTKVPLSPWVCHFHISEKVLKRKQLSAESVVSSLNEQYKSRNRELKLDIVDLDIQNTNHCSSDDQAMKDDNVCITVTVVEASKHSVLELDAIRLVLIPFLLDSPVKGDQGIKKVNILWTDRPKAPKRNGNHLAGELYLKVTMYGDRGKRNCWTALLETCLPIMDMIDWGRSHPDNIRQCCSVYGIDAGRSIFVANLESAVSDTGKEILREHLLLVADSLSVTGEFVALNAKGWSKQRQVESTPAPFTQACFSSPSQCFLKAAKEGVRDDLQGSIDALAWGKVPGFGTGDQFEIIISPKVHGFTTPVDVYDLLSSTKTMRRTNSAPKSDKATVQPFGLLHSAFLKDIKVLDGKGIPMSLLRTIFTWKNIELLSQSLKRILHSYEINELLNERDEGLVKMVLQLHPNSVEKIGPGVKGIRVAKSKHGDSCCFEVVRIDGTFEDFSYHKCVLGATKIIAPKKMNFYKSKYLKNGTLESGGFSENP
As to the kind of experiment: co-IP.

B1: recombinant RDR2 (RNA-DEPENDENT RNA POLYMERASE 2), wild type, with N-terminal V5 epitope and 6xHis tags (enzyme)
chain: MVSETTTNRSTVKISNVPQTIVADELLRFLELHLGEDTVFALEIPTTRDNWKPRDFARVQFTTLEVKSRAQLLSSQSKLLFKTHNLRLSEAYDDIIPRPVDPRKRLDDIVLTVGFPESDEKRFCALEKWDGVRCWILTEKRRVEFWVWESGDCYKIEVRFEDIIETLSCCVNGDASEIDAFLLKLKYGPKVFKRVTVHIATKFKSDRYRFCKEDFDFMWIRTTDFSGSKSIGTSTCFCLEVHNGSTMLDIFSGLPYYREDTLSLTYVDGKTFASAAQIVPLLNAAILGLEFPYEILFQLNALVHAQKISLFAASDMELIKILRGMSLETALVILKKLHQQSSICYDPVFFVKTQMQSVVKKMKHSPASAYKRLTEQNIMSCQRAYVTPSKIYLLGPELETANYVVKNFAEHVSDFMRVTFVEEDWSKLPANALSVNSKEGYFVKPSRTNIYNRVLSILGEGITVGPKRFEFLAFSASQLRGNSVWMFASNEKVKAEDIREWMGCFRKIRSISKCAARMGQLFSASRQTLIVRAQDVEQIPDIEVTTDGADYCFSDGIGKISLAFAKQVAQKCGLSHVPSAFQIRYGGYKGVIAVDRSSFRKLSLRDSMLKFDSNNRMLNVTRWTESMPCFLNREIICLLSTLGIEDAMFEAMQAVHLSMLGNMLEDRDAALNVLQKLSGENSKNLLVKMLLQGYAPSSEPYLSMMLRVHHESQLSELKSRCRILVPKGRILIGCMDEMGILEYGQVYVRVTLTKAELKSRDQSYFRKIDEETSVVIGKVVVTKNPCLHPGDIRVLDAIYEVHFEEKGYLDCIIFPQKGERPHPNECSGGDLDGDQFFVSWDEKIIPSEMDPPMDYAGSRPRLMDHDVTLEEIHKFFVDYMISDTLGVISTAHLVHADRDPEKARSQKCLELANLHSRAVDFAKTGAPAEMPYALKPREFPDFLERFEKPTYISESVFGKLYRAVKSSLAQRKPEAESEDTVAYDVTLEEAGFESFIETAKAHRDMYGEKLTSLMIYYGAANEEEILTGILKTKEMYLARDNRRYGDMKDRITLSVKDLHKEAMGWFEKSCEDEQQKKKLASAWYYVTYNPNHRDEKLTFLSFPWIVGDVLLDIKAENAQRQSVEEKTSGLVSI
For B1, the binding result was “binds”.

(Values after doi:10.1101/2020.09.09.290171 (bioRxiv, 2020).)
